We go through 13 molecules from patent US20170189529A1.

The target in assay [1] is recombinant HA of influenza A H3 A/Sydney/97 (influenza A virus H3 A/Sydney/97). Put plainly: recombinant HA ELISA (AttoPhos fluorescence, mean of triplicates).
Assay [2] concerns the target recombinant HA of influenza A H1 A/California/09 (influenza A virus H1 A/California/09). The description is as above.
The target of assay [3] is hemagglutinin (HA) of influenza B virus B/Florida (Yamagata lineage) (influenza B virus B/Florida/06 (Yamagata clade)). Put plainly: ForteBio Octet; antigen on the sensor, varying antibody concentrations.
Assay [4] has as its target hemagglutinin (HA) of influenza B virus B/Malaysia (Victoria lineage) (influenza B virus B/Malaysia/04 (Victoria clade)). The description is as above.
The target in assay [5] is H3 Perth/16/2009 HA monomer (influenza A virus H3 Perth/16/2009). In words: kinetic binding to HA monomer (instrument not stated).
For assay [6], the target named is H7 Netherlands/219/03 HA trimer (influenza A virus H7 Netherlands/219/03). In words: kinetic binding to HA trimer (instrument not stated).
The target in assay [7] is H9 HongKong/1073/99 HA monomer (influenza A virus H9 HongKong/1073/99). Put plainly: kinetic binding to HA monomer (instrument not stated).
The target of assay [8] is H5 Vietnam/1194/2004 HA monomer (influenza A virus H5 Vietnam/1194/2004). Described as above.
The target of assay [9] is H7 Netherlands/219/03 HA monomer (influenza A virus H7 Netherlands/219/03). Described as above.
Assay [10] concerns the target H5 Vietnam/1203/2004 HA trimer (influenza A virus H5 Vietnam/1203/2004). In words: kinetic binding to HA trimer (instrument not stated).

B1: TRL832 (antibody, V domains shown)
VH: QVQLVESGPGLMKPSETLSLTCTVSGGSVSNYYWSWIRQPPGKGLEWIGYVFYSGSSNYNPSLNNPSLKSRVTISIDTSNNQFSLKLSSVTAADTAVYYCARGRVNSGYDWGPNFDSWGQGALVTVSS
VL: DIVLTQAPSVSVSPGQTASITCSGDRLGEKFASWYQQKPGQSPVLVIYEDSKRPSGIPDRFSGSNSGNTATLTISGTQIMDEGDFFCQAWDSSTVVFGGGTKLTVLG
B1: the fold reactivity over background (fold over background) in assay [1] and in assay [2] was 1.1 in each case.

B2: TRL833 (antibody, V domains shown)
VH: QVQLLESGPGLVKPSQTLLLTCTVSGASISTGGNYWSWIRQHPGKDLEWIGYIFYSGTTKYNPSVDNPSLKSRVTMSVDTSENQFSLKLSSVTAADTAVYFCARGSPNSGYDWGPHFDYWGQGTLVTVSS
VL: DIELTQSPSVSVSPGQTASITCSGDKLGDKFVCWYQQKAGQSPIVVIYQDDKRPSGIPERFSGSNSGNTATLTISGTQAMDEADYFCQAWDSTTVVFGGGTKLTVLG
With B2, the dissociation constant Kd (in general, the free concentration of one partner at which half of the binding sites on the other are occupied at equilibrium, for simple one-to-one binding) worked out at 2.9 nM in [3] and 0.2 nM in assay [4].

B3: TRL823 (antibody, V domains shown)
VH: QVQLVESGGGVVQPGGSLRLSCAASGFNFDEYVMYWVRQSPGKGLEWVSLIGADGRGTYNSDSVKGRFTISRDNRKNSLYLQMNSLRSDDTALYYCAKVERSFYDGSGYGDALEIWGQGTMVTVSS
VL: DIVMTQSPSSLSASVGDRVSITCRASQTITRFLNWYQQKPGKGPKLLIYAASTVHRGVPSRFSGSGSGTDFTLTISSLQPEDFATYYCQQSYSAPFTFGPGTTVDIRR
Regarding B3, the Kd is 2 nM in assay [3] and 0.3 nM in assay [4].

B4: TRL856 (antibody, V domains shown)
VH: QVQLVESGGGLVQPGGSLRLSCAASGFTFSDYWMVWVRQAPGKGLVWVSRISSDGSTTSYADSVKGPFTISRDNAKNTLYLQMNSLRAEDTAVYYCARVATPYYYESGFDYWGQGALVTVSS
VL: DIVLTQSPSVSVAPGQTARITCGGNDIGSKSVHWYQQKPGQAPVLVVFDDRDRPSGIPERFSGSNSGNTATLTISRVEAGDEADYYCQVWDITSDLVVFGGGTKLTVVG
For the molecule B4, the fold reactivity over background (fold over background) turned out to be 1.3 in assay [1] and 1.2 in assay [2].

B5: TRL813 (antibody, V domains shown)
VH: QVQLVESGGGLVQPGGSLRLSCAASGFIFGDFAIHWVRQASGKGLEWVARIRSGLNRFETAYAASVEGRLTISRDDSKSMAYLQMNNVKAEDTAVYLCTYLVGAVGFQHWGQGTLVTVSS
VL: DIVMTQSPSTLSASVGDRVTITCRASQTIYRWLAWYQQKPGKAPKVLIYKASTLESGVPSRFSGSGSGTEFTLAISSLQPDDFATYYCQQYNSFPYRFGQGTKVEIKR
For B5, the results for the fold reactivity over background (fold over background) in assay [1] and in assay [2] were 1.1 and 1.6, respectively.

B6: TRL579 (antibody, V domains shown)
VH: QVQLVQSGAEVKKPGASVKVSCKTSGYTFTAYTIHWVRQAPGQRLEWMGWINAGNGHTKYSQRFKGRVTITRDTSARTTYMELRSLTSEDTALYFCARGPETYYYDKTNWLNSHPDEYFQHWGHGTQVTVSS
VL: DIQMTQSPSTLSASVGDRVTITCRASQTINNYLAWYQQKPGKAPKLLIYKASSLESGVPSRFSGSGSGTEFTLTISSLQPDDFATYYCQEYNNDSPLTFGGGTKVEIKR
For B6, the dissociation constant (Kd) was 3.9 nM in [5] and 0.4 nM in assay [6]. Further, the results for the dissociation rate constant (koff) in assay [5] and in assay [6] were 0.00064 s⁻¹ and 4e-05 s⁻¹, respectively. Also, the kon – broadly, the second-order rate constant of association – was determined as 170000 M⁻¹ s⁻¹ in [5] and 100000 M⁻¹ s⁻¹ in assay [6]. Moreover, the fold reactivity over background (fold over background) in assay [1] turned out to be 25.6; in assay [2] it was 1.

B7: TRL784 (antibody, V domains shown)
VH: QVQLVQSGPELKKPGSSVKLSCMATGGTFINYAFSWVRQAPGQGLEWLGGIIPVYGTSNHVEKLQGRVTITADASTNTAYMELSGLRFDDTAVYFCAASTATSGTYYAMRPFDFWGQGTLVSVSS
VL: DIELTQDPSVSVAPGQTARIPCVRFNMGPTSVHWYQQKPGQAPVLVVYDDSDRPSGIPERFSGSNSGDSATLTISRVEAGDEADYYCQVWDMSSDRRVFGGGTTLTVLG
As for B7, the values for the dissociation constant (Kd) in assay [3] and in assay [4] were 0.7 nM and 7 nM, respectively.

B8: TRL053 (antibody, V domains shown)
VH: QVQLVQSGAEVRKPGSSVKVSCKVSGGIIRKYAINWVRQAPGQGLEWMGGIIAIFNTANYAQKFQGRVTITADESTSTVYMELSSLRSEDTALYYCARGMNYYSDYFDYWGQGSLVTVSP
VL: EIVLTQSPGTLSLSPGERATLSCRASQSVRSNNLAWYQHKPGQAPRLLIFGASSRATGIPDRFSGSGSGTDFTLTISRLEPEDFAVYYCQQYGSSPALTFGGGTKVEIKR
As to B8, the Kd in assay [7] was 0.2 nM; in assay [8] it was 0.5 nM; in [9] it was 1.2 nM; in assay [10], 0.5 nM. In addition, the off-rate (koff) (usually the first-order rate constant of dissociation) in [7] was found to be 1.6e-05 s⁻¹; in assay [8], 1.9e-05 s⁻¹; in [9] it was 6.7e-05 s⁻¹; in assay [10] it was 4.5e-05 s⁻¹. The kon in assay [7] came out at 98000 M⁻¹ s⁻¹; in [8], 38000 M⁻¹ s⁻¹; in assay [9], 55000 M⁻¹ s⁻¹; in assay [10] it was 92000 M⁻¹ s⁻¹. Further, the fold reactivity over background (fold over background) in [1] is 1; in assay [2], 25.6.

B9: TRL847 (antibody, V domains shown)
VH: QVQLVESGGGLVQPGGSLRLSCVASGFTFSRFSMNWVRQAPGMGLEWVSYISDTGRTIYYADSVKGRFTISRDNDKNTLYLQMKSLRDEDSAFYYCARDPDTPFVRAFDSWGQGVLVTVSS
VL: DIVMTQSPSFLSASVGDRVTITCRTSQVISSYLAWYQQRPGKAPKLLIYAASTLQSGVPSRFSGSGSGTRFSLTISNLQPEDFATYFCQQLTTYPPITFGQGTRLEIKR
B9: the fold reactivity over background (fold over background) stood at 1 in assay [1] and 1.1 in assay [2].

B10: TRL845 (antibody, V domains shown)
VH: QVQLVQSGGDLVQPGGSLRLSCAASGFTFSRYSMNWVRQAPGMGLEWVAYISDTSRTIYYADSVKGRFTISRDNAKNSLYLQMKSLRDEDTAVYYCARDPDTPFVRAFDSWGQGTLVTVSS
VL: DIVLTQSPSFLSASVGDRVTITCRASQLISSYFAWYQQKPGKPPKLLIYAASTLQSGVPSRFSGSGSGTQFSLTISSLQPEDFATYYCQQLNSYPPITFGQGTRLEIKR
On to B10, for which the fold reactivity over background (fold over background) in assay [1] turned out to be 1.1; in assay [2] it was 1.4.

B11: TRL837 (antibody, V domains shown)
VH: QVQLVQSGAEVKKPGSSVTVSCKTSGHTFISYAISWLRQAPGQGLEWMGGIVPIFGTVNYTQKFQGRLTITADESTSTAYMDLSRLTFEDTAIYFCAREAGYHSSFSGVYFDYWGQGTLLTVSS
VL: DIVMTQSPGTLSLSPGERATLYCRASQSVRSGYLAWYQHKPGQAPLLLFYDASGRATGIPDRFSGSGSGTDFTLTISRLEPEDFAVYYCLQYGSSPRTFGQGTKVEIKR
B11: the values for the dissociation constant Kd in assay [3] and in assay [4] were 0.3 nM and 1 nM, respectively.

B12: TRL835 (antibody, V domains shown)
VH: QVQLVQSGAEVRKPGESLRISCRGSGYNFPKYWIGWVRQMPGKGLEWMGMIYPGDSDVRYNPSFQGQVTISADESINTAYLQWSSLRTSDTARYYCARHLGQQLVSNTYYYYGMDVWGQGTTVTVSS
VL: DIVLTQSPLSLPVTPGEPASISCRSSQSLLDSNGYNYLDWYLQKPGQSPQLLIYLASYRAPGVPDRFSGSGSGTDFTLKISRVEAEDVGLYYCMQALQTPPMYTFGQGTKLEIKR
As for B12, the equilibrium dissociation constant (Kd) came out at 0.6 nM in [3] and 2.3 nM in assay [4].

B13: TRL854 (antibody, V domains shown)
VH: QVQLVESGAEVKKPGASVRVSCKGSGYTFTAYHMHWVRQAPGQGFEWVGWINPNSGATYYTSTFEGRVTMTRDTSITTAYMELSSLRSDDTAVYYCATDIVVERDASLGGFNSYGMDVWGQGTTVTVSS
VL: DIEMTQSPLSLPVTPGEPASISCRSSQSLLHSNGYNHLAWYLQKPGRSPHLLIYLASTRASGVPDRFSGSGSGTDFTLKISRVEAEDVGIYYCMQSLQTSITFGQGTRLEIKR
On to B13, for which the fold reactivity over background (fold over background) in assay [1] is 1.3; in assay [2] it was 1.2.
